The text below walks through data of patent US20210332133A1 (TENEOTWO, published 2021).

First the molecules themselves.
T1: human CD19 on CD19-positive cells (Daudi, Raji, Ramos; CD19+ tumor cell line) (human, UniProt P15391 20-556)
T1 construct: whole, on cells
T1 sequence (looked up): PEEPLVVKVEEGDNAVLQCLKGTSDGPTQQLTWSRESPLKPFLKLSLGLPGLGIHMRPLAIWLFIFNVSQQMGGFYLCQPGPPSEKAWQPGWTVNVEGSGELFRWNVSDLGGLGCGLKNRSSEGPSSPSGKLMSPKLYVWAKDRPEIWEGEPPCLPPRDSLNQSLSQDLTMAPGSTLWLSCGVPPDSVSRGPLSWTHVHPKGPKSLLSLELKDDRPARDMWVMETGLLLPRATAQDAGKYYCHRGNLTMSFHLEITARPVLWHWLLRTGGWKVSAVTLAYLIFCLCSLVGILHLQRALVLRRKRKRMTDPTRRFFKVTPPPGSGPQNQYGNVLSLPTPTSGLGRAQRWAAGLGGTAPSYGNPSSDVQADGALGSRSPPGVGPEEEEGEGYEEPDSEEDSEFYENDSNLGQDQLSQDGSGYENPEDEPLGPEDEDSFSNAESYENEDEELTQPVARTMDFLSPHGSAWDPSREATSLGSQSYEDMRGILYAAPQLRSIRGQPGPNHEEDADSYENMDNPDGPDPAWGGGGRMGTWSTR

T2: human CD19 (human, UniProt P15391 20-291)
T2 construct: also called B-Lymphocyte Surface Antigen B4; recombinant CD19 extracellular domain
T2 sequence (looked up): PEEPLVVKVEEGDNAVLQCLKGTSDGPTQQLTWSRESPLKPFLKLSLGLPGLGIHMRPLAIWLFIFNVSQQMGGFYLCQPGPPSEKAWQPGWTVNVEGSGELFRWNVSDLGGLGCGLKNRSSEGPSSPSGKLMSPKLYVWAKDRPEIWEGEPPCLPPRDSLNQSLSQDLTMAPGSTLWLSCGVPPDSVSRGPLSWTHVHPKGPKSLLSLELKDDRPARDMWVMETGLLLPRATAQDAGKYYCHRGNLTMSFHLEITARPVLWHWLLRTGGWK

B1: SEQ ID NO 21 (antibody, V domains shown)
VH: EVQLVESGGGLVQPGGSLRLSCVASGFTFSSYWMSWVRQAPGKGLEWVANIKQDGSEKEYVDSVKGRFTISRDNAKNSLYLQMNSLRAEDTAVYYCASGVYSFDYRGQGTLVTVSS
notes: Heavy chain-only antibody (UniAb, human IgG, no light chain, no CH1)
B2: SEQ ID NO 17 (antibody, V domains shown)
VH: B1 VH with V23A, T28S, S31D, Y32F, N50T, K52S, D54A, E59D, N77K
notes: as for B1
B3: SEQ ID NO 14 (antibody, V domains shown)
VH: B1 VH with V23A, S31N, L45Q, N50T, K52N, E57D, E59D, N77K
notes: as for B1
B4: SEQ ID NO 18 (antibody, V domains shown)
VH: B1 VH with Q13K, V23E, N50H, E59Y
notes: as for B1
B5: SEQ ID NO 15 (antibody, V domains shown)
VH: B1 VH with V12A, V23A, Y32F, N50T, I51M, K52N, E59D, R87T
notes: as for B1
B6: SEQ ID NO 20 (antibody, V domains shown)
VH: B1 VH with R19T, S31D, W33Y, V37I, E59F, A75P, N84D, A88V
notes: as for B1
B7: SEQ ID NO 16 (antibody, V domains shown)
VH: B1 VH with L11M, V23A, N50T, K52N, E59D, N77K, Y80L
notes: as for B1
B8: SEQ ID NO 19 (antibody, V domains shown)
VH: B1 VH with S31D, K52N, Q53K, D54A, K58E, E59F, N84D
notes: as for B1

Positions count from the first letter of the chain named.

In the first experiment the target is T1, human CD19 on CD19-positive cells …. In words: cell binding, flow cytometry. The protocol:
Binding to CD19 positive cells was assessed by flow cytometry (Guava easyCyte 8HT, EMD Millipore) using the Daudi cell line (ATCC). Briefly, 100,000 target cells were stained with a dilution series of purified UniAbs™ for 30 minutes at 4° C. Following incubation, the cells were washed twice with flow cytometry buffer (1X PBS, 1% BSA, 0.1% NaN₃) and stained with goat F(ab′)2 anti-human IgG conjugated to R-phycoerythrin (PE) (Southern Biotech, cat. #2042-09) to detect cell-bound antibodies. After a 20-minute incubation at 4° C., the cells were washed twice with flow cytometry buffer and then mean fluorescence intensity (MFI) was measured by flow cytometry. EC50 values were calculated using GraphPad Prism 7. Binding to cynomolgus CD19 positive cells was determined using the same protocol with the following modifications: the target cells were from CHO cells stably transfected to express the extracellular domain of cynomolgus CD19 and each antibody was tested at a single concentration (˜1.7 μg/mL) so EC50 values were not calculated.
On the technique in general: In flow cytometry, cells or beads pass a laser one at a time.
With B1, the binding result is listed as “binds”.
Still for that read-out and setting: for B2 the value was “binds”.
With B3, the binding result was “binds”.
Consider B4, for which the binding result is listed as “binds”.
Still for that read-out and setting: for B5 the value was “binds”.
Turning to B6, the binding result is reported as “binds”.
The same measure, in the same setting: the result for B7 reads “binds”; that for B8, “binds”.

Another experiment concerns the target T2, human CD19. In words: ELISA on recombinant CD19 extracellular domain and/or cell-binding assay. On the technique in general: ELISA stands for enzyme-linked immunosorbent assay.
Regarding B1, the binding result was “binds”.
For the molecule B2, the binding result is reported as “binds”.
With B3, the binding result is “binds”.
Same read-out and setting: for B4 the value was “binds”.
On to B5, for which the binding result is recorded as “binds”.
As to B6, the binding result is listed as “binds”.
As for B7, the binding result is “binds”.
For the molecule B8, the binding result is reported as “binds”.
